# Experimental data as given in article PMC5957534.
# T1: AfXPB (Archaeoglobus fulgidus, UniProt O29889 1-452)
# T1 sequence: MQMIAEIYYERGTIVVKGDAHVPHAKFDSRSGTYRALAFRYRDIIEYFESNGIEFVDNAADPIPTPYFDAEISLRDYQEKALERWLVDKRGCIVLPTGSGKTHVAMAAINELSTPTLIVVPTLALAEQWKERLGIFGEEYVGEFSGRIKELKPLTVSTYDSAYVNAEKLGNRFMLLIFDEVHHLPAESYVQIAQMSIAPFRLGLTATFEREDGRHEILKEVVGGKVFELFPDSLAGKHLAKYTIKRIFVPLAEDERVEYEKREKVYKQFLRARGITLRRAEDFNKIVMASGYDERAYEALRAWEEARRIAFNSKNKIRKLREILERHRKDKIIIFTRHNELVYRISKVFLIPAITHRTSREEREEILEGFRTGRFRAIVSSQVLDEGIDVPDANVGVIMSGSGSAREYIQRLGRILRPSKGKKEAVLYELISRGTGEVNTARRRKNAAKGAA
# T2: StXPB1 (Sulfolobus tokodaii, UniProt Q971U1 1-543)
# T2 sequence: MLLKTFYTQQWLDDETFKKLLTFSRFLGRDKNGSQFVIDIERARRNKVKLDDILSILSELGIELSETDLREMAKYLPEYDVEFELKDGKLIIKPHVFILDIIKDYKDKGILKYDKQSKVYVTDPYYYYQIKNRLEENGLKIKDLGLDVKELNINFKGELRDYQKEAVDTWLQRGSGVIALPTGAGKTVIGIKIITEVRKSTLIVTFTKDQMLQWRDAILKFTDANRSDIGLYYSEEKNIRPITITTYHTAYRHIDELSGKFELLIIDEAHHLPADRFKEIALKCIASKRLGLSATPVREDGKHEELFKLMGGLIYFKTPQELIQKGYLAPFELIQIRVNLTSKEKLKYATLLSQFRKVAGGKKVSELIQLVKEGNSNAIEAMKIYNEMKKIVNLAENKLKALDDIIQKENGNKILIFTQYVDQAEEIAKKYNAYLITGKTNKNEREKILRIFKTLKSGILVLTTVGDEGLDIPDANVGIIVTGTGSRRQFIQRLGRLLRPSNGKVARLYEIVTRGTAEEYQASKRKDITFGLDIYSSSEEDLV
# T3: StXPB2 (Sulfolobus tokodaii, UniProt Q970I2 1-439)
# T3 sequence: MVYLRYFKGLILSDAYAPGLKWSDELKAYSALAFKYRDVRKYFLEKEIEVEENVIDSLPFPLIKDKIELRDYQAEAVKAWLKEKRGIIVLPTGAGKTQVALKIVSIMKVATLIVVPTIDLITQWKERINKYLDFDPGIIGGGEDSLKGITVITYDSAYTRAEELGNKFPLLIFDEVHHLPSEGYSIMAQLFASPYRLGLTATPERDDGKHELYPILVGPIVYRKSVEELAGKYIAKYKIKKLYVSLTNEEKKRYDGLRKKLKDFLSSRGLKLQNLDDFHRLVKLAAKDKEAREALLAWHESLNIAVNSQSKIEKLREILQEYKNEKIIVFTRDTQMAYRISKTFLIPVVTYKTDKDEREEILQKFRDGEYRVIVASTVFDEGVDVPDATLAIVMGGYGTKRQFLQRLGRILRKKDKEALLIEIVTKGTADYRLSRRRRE
# B1: 17mer well-matched duplex (WM) (dsDNA)
# DNA 1: GAGATATAAAGCACGCA
# DNA 2: TGCGTGCTTTATATCTC
# modifications: strand 1 5' C6 thiol on gold electrode; strand 2 5'-terminal T is Nile Blue-modified (5-acrylate dU)
# Assays:
# Assay in all cases: DNA electrochemistry
# AfXPB = molecular target: T1, AfXPB
# StXPB1 = molecular target: T2, StXPB1
# StXPB2 = molecular target: T3, StXPB2
binder,measurement,setting,value
B1,Kd,AfXPB,22 ± 8 nM
same,Kd,StXPB1,8 ± 2 nM
same,Kd,StXPB2,50 ± 10 nM
